Values of other authors, collected in patent US7723472B2, “Extracellular matrix binding chimeric proteins and methods of use thereof” (The Regents of the University of California, priority 2005, dated 2010).

Conditions: published value for yCD, Kievit et al. 1999

B1: yCD: Yeast cytosine deaminase (protein, UniProt Q12178 1-158, looked up)
Cytosine deaminase: MVTGGMASKWDQKGMDIAYEEAALGYKEGGVPIGGCLINNKDGSVLGRGHNMRFQKGSATLHGEISTLENCGRLEGKVYKDTTLYTTLSPCDMCTGAIIMYGIPRCVVGENVNFKSKGEKYLQTRGHEVVVVDDERCKKIMKQFIDERPQDWFEDIGE
Km: 800 µM
Vmax: 68 μM/min/μg enzyme
